# Measured values: patent publication US20260263563A1, “Method of Treatment of a Thoracolumbar Deformity in a Human Subject with Achondroplasia” (Ascendis Pharma Growth Disorders A/S, priority 2023, published 2026)
# Where two headings read alike, the source gives them in different places.
# Experiments:
# [1] = tested on: prepubertal children with achondroplasia; conditions: for AGV: 100 μg CNP-38/kg/week group
# Protocol: The study enrolled a minimum of 60 male and female prepubertal children with ACH aged 2 to 10 years old. The clinical trial is listed on www.clinicaltrials.gov under the ClinicalTrials.gov Identifier: NCT04085523. The objectives of the study were as follow:
# This trial is a multicenter trial consisting of two treatment periods.
# Height of subjects enrolled in the study of Example 3 was measured using a wall-mounted stadiometer. The same equipment was used at all visits for the same child. All instruments were calibrated as required by local requirements or per instrument manufacturer guidance prior to use.
# [2] = Protocol: A population PK model was used to characterize the sparse PK data.
# Blood samples for determination of CNP-38 were acidified immediately after collection, using citrate acid buffer, to stabilize the prodrug in the sample thereby avoiding further liberation of CNP-38 from the prodrug. CNP-38 was determined in plasma (heparin) following protein precipitation and solid phase extraction and analyzed using liquid chromatography and tandem mass spectrometry detection. CNP-38 (38 amino acid peptide) was used as reference material and CNP-38 labelled with deuterium (D30-CNP-38) as internal standard (IS). Positive ions were monitored in multiple-reaction monitoring mode. The quantification was performed using the peak area ratios of analyte versus IS. The calibration curve fitting was done by 1/concentration-weighted linear regression.
# During the trial, sparse blood samples were collected at different time points in the dosing interval, and the concentration of free CNP-38 was determined using the methodology described in example 6.
# The values are provided as pmol/L CNP-38. […] The lower value in the range is the lowest free CNP-38 concentration, also referred to as the trough level or trough concentration. The number of subjects contributing with observations at the specified time interval are: 4, 8, 10 and 6 for the 6, 20, 50 and 100 μg/kg dose groups, respectively.
substance,measurement,setting,value
Navepegritide [Compound (1)],"AGV, LS Mean","[1]; 6 μg/kg/week, 52 weeks, n = 10, 95% CI [3.34, 4.84], p 0.6004 vs pooled placebo (4.35)","4.09, n = 10 cm/year"
same,"Δ Height SDS (ACH-specific height SDS), LS Mean","[1]; 6 μg/kg/week, n = 10, 95% CI [−0.26, 0.17], p 0.8207 vs pooled placebo (−0.08)","−0.04, n = 10"
same,"AGV, LS Mean","[1]; 20 μg/kg/week, 52 weeks, n = 11, 95% CI [3.82, 5.22], p 0.7022 vs pooled placebo","4.52, n = 11 cm/year"
same,"Δ Height SDS (ACH-specific height SDS), LS Mean","[1]; 20 μg/kg/week, n = 11, 95% CI [−0.17, 0.23], p 0.4107 vs pooled placebo","0.03, n = 11"
same,"AGV, LS Mean","[1]; 50 μg/kg/week, 52 weeks, n = 10, 95% CI [4.43, 5.90], p 0.0849 vs pooled placebo","5.16, n = 10 cm/year"
same,"Δ Height SDS (ACH-specific height SDS), LS Mean","[1]; 50 μg/kg/week, n = 10, 95% CI [−0.10, 0.32], p 0.1660 vs pooled placebo","0.11, n = 10"
same,AGV,[1]; 0 to 6 months,5.167 cm/year
same,AGV,[1]; time period 6 to 12 months,5.696 cm/year
same,"AGV, LS Mean","[1]; 100 μg/kg/week, 52 weeks, n = 11, 95% CI [4.74, 6.11], p 0.0218 vs pooled placebo","5.42, n = 11 cm/year"
same,"AGV, LS Mean","[1]; 100 μg/kg/week, 52 weeks, n = 11, 95% CI [4.74, 6.11], p 0.0218 vs pooled placebo, listed as compound (1)",5.42 cm/year
same,"Δ Height SDS (ACH-specific height SDS), LS Mean","[1]; 100 μg/kg/week, n = 11, 95% CI [0.02, 0.41], p 0.0283 vs pooled placebo","0.22, n = 11"
same,growth in Open Label Extension,"[1]; 46 children switched from placebo or lower dose to 100 μg/kg/week, after one year",improved growth
same,"AGV, LS Mean","[1]; Age < 5 years old, 6 μg/kg/week, n = 3, 95% CI [2.52, 6.10]","4.31, n = 3 cm/year"
same,"AGV, LS Mean","[1]; Age < 5 years old, 20 μg/kg/week, n = 5, 95% CI [3.30, 6.15]","4.72, n = 5 cm/year"
same,"AGV, LS Mean","[1]; Age < 5 years old, 50 μg/kg/week, n = 5, 95% CI [3.62, 6.52]","5.07, n = 5 cm/year"
same,"AGV, LS Mean","[1]; Age < 5 years old, 100 μg/kg/week, n = 3, 95% CI [4.03, 7.87]","5.95, n = 3 cm/year"
same,"AGV, LS Mean","[1]; Age ≥ 5 years old, 6 μg/kg/week, n = 7, 95% CI [2.87, 4.71]","3.79, n = 7 cm/year"
same,"AGV, LS Mean","[1]; Age ≥ 5 years old, 20 μg/kg/week, n = 6, 95% CI [3.43, 5.15]","4.29, n = 6 cm/year"
same,"AGV, LS Mean","[1]; Age ≥ 5 years old, 50 μg/kg/week, n = 5, 95% CI [4.39, 6.26]","5.33, n = 5 cm/year"
same,"AGV, LS Mean","[1]; Age ≥ 5 years old, 100 μg/kg/week, n = 8, 95% CI [4.35, 5.90]","5.12, n = 8 cm/year"
same,Estimated half-life for free CNP,[2]; 6 μg/kg/week,101 h
same,"Free CNP-38, Mean (SD)","[2]; 6 μg/kg/week, 6.5 to 7.5 days after last dose",1.7 (0.2) pmol/L
same,"Free CNP-38, Median (range)","[2]; 6 μg/kg/week, samples 6.5 to 7.5 days after last dose (trough), 4 subjects",1.7 (1.4-1.9) pmol/L
same,Estimated half-life for free CNP,[2]; 20 μg/kg/week,106 h
same,"Free CNP-38, Mean (SD)","[2]; 20 μg/kg/week, 6.5 to 7.5 days after last dose",2.9 (9.7) pmol/L
same,"Free CNP-38, Median (range)","[2]; 20 μg/kg/week, 6.5 to 7.5 days after last dose, 8 subjects",2.9 (1.6-4.2) pmol/L
same,Estimated half-life for free CNP,[2]; 50 μg/kg/week,108 h
same,"Free CNP-38, Mean (SD)","[2]; 50 μg/kg/week, 6.5 to 7.5 days after last dose",7.2 (2.5) pmol/L
same,"Free CNP-38, Median (range)","[2]; 50 μg/kg/week, 6.5 to 7.5 days after last dose, 10 subjects",6.5 (4-16.9) pmol/L
same,Estimated half-life for free CNP,[2]; 100 μg/kg/week,110 h
same,"Free CNP-38, Mean (SD)","[2]; 100 μg/kg/week, 6.5 to 7.5 days after last dose",14 (4.2) pmol/L
same,"Free CNP-38, Median (range)","[2]; 100 μg/kg/week, 6.5 to 7.5 days after last dose, 6 subjects",13.8 (9.4-23) pmol/L
same,"Free CNP-38, Median (range)","[2]; 150 μg/kg/week, simulated with a population PK model",22.3 (19.7-25) pmol/L
same,exposure across dosing cohorts,"[2]; 6, 20, 50 and 100 μg/kg",dose related increase in exposure
same,"Predicted median free CNP Cmax, Median (9-95th percentile)","[2]; BW 10 kg, 6 μg/kg/week",2.9 (1.6-5.0) pg/ml
same,"Predicted median free CNP Cmax, Median (9-95th percentile)","[2]; BW 10 kg, 20 μg/kg/week",10.4 (5.8-18.9) pg/ml
same,"Predicted median free CNP Cmax, Median (9-95th percentile)","[2]; BW 10 kg, 50 μg/kg/week",26.5 (15.2-48.1) pg/ml
same,"Predicted median free CNP Cmax, Median (9-95th percentile)","[2]; BW 10 kg, 100 μg/kg/week",53.1 (30.9-96.4) pg/ml
same,"Predicted median free CNP Cmax, Median (9-95th percentile)","[2]; BW 35 kg, 6 μg/kg/week",1.8 (1.1-3.3) pg/ml
same,"Predicted median free CNP Cmax, Median (9-95th percentile)","[2]; BW 35 kg, 20 μg/kg/week",6.6 (3.8-12.6) pg/ml
same,"Predicted median free CNP Cmax, Median (9-95th percentile)","[2]; BW 35 kg, 50 μg/kg/week",18.3 (10.3-31.5) pg/ml
same,"Predicted median free CNP Cmax, Median (9-95th percentile)","[2]; BW 35 kg, 100 μg/kg/week",36.6 (20.2-65.9) pg/ml
same,Preliminary mean free CNP level,"[2]; Cohort 1, 6 μg/kg, WEEK 0, 0.96 days post 1st dose",1.86 pmol/L
same,Preliminary mean free CNP level,"[2]; Cohort 1, 6 μg/kg, WEEK 4, 27.98 days, all observations below LLOQ, set to LLOQ ([…])",1.38 pmol/L
same,Preliminary mean free CNP level,"[2]; Cohort 1, 6 μg/kg, WEEK 8, 55.97 days",1.68 pmol/L
same,Preliminary mean free CNP level,"[2]; Cohort 1, 6 μg/kg, WEEK 12, 79.02 days",1.85 pmol/L
same,Preliminary mean free CNP level,"[2]; Cohort 1, 6 μg/kg, WEEK 26, 181.99 days",1.48 pmol/L
same,Preliminary mean free CNP level,"[2]; Cohort 1, 6 μg/kg, WEEK 39, 271.94 days",2.02 pmol/L
same,Preliminary mean free CNP level,"[2]; Cohort 1, 6 μg/kg, WEEK 52, 363.90 days",1.58 pmol/L
same,Preliminary mean free CNP level,"[2]; Cohort 2, 20 μg/kg, WEEK 0, 1.01 days",3.49 pmol/L
same,Preliminary mean free CNP level,"[2]; Cohort 2, 20 μg/kg, WEEK 4, 27.94 days",3.27 pmol/L
same,Preliminary mean free CNP level,"[2]; Cohort 2, 20 μg/kg, WEEK 8, 56.27 days",3.79 pmol/L
same,Preliminary mean free CNP level,"[2]; Cohort 2, 20 μg/kg, WEEK 12, 84.00 days",3.84 pmol/L
same,Preliminary mean free CNP level,"[2]; Cohort 2, 20 μg/kg, WEEK 26, 182.00 days",2.77 pmol/L
